This is an account of results in patent publication US20150374794A1 (Novo Nordisk, published 2015).

Usually IC50 stands for the concentration at which inhibition is half-maximal. Low values mean higher potency, high ones lower potency.

Numbered stars: 1 amine (or outer) side, 2 acyl side, 3 side chain; on linkers, the order of the positions; unused ones are H or OH. Square brackets hold non-standard residues; d marks the D form. Side chains are listed from the residue outwards. Ends that are not written are not given here. * marks the point of attachment. C18 diacid = O=C(O)CCCCCCCCCCCCCCCCC(=O)*; γGlu = O=C(O)[C@H](CCC(=O)[*:2])N[*:1]; AEEA = NCCOCCOCC(=O)O; Aib = CC(C)(N)C(=O)O

For experiment [1], the target named is T1, human GLP-1 receptor (human, UniProt P43220 24-463). Description: cell-based or functional assay.
Experiment [2] concerns the target T2, human glucagon receptor (human, UniProt P47871 26-477). Description: cell-based or functional assay.
Experiment [3] has as its target T1, human GLP-1 receptor. Description: displacement of 125I-GLP-1(7-36)NH2, membranes with human GLP-1R, SPA. The method, then:
The receptor binding of each compound to the human GLP-1 receptor was measured in a displacement binding assay. […] Each derivative was added in a series of concentrations to isolated membranes containing the human GLP-1 receptor and displacement of the labelled ligand was monitored. The receptor binding was reported as the concentration at which half of the labelled ligand was displaced from the receptor, the IC₅₀ value.
In general terms: Displacement assays read how much labelled ligand stays bound in the presence of the test substance.

Experiment [4] deals with T2, human glucagon receptor. Kind of experiment: displacement of 125I-glucagon, membranes with human glucagon receptor, SPA. The method, then: The receptor binding of each compound to the human glucagon receptor was measured in a displacement binding assay. […] Each derivative was added in a series of concentrations to isolated membranes containing the human glucagon receptor and displacement of the labelled ligand is monitored. The receptor binding was reported as the concentration at which half of the labelled ligand is displaced from the receptor, the IC₅₀ value.

T2 sequence (P47871 26-477): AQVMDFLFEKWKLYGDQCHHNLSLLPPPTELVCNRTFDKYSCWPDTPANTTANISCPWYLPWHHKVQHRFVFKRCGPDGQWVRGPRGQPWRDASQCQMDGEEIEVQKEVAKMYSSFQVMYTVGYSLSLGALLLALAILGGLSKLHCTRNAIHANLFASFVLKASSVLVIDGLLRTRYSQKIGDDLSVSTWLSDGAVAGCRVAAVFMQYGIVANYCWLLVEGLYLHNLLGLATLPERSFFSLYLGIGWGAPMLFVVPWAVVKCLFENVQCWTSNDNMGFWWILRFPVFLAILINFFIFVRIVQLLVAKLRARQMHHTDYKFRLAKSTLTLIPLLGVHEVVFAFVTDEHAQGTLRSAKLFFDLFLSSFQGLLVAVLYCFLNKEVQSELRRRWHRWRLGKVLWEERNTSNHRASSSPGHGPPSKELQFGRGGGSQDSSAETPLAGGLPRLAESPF

B1: N^ε29-[(4S)-4-carboxy-4-[[(4S)-4-carboxy-4-[[2-[2-[2-[[2-[2-[2-[[(4S)-4-carboxy-4-(17-carboxyheptadecanoylamino)butanoyl]amino]ethoxy]ethoxy]acetyl]amino]ethoxy … (peptide)
peptide: H[Aib]QGTFTSDLSKYLDSRRAREFVQWLLNK([γGlu-γGlu-AEEA-AEEA-γGlu-C18 diacid])-NH2
modifications: N-terminus assumed
SMILES: CC(C)C[C@H](NC(=O)[C@H](CC(C)C)NC(=O)[C@H](Cc1c[nH]c2ccccc12)NC(=O)[C@H](CCC(N)=O)NC(=O)[C@@H](NC(=O)[C@H](Cc1ccccc1)NC(=O)[C@H](CCC(=O)O)NC(=O)[C@H](CCCNC(=N)N)NC(=O)[C@H](C)NC(=O)[C@H](CCCNC(=N)N)NC(=O)[C@H](CCCNC(=N)N)NC(=O)[C@H](CO)NC(=O)[C@H](CC(=O)O)NC(=O)[C@H](CC(C)C)NC(=O)[C@H](Cc1ccc(O)cc1)NC(=O)[C@H](CCCCN)NC(=O)[C@H](CO)NC(=O)[C@H](CC(C)C)NC(=O)[C@H](CC(=O)O)NC(=O)[C@H](CO)NC(=O)[C@@H](NC(=O)[C@H](Cc1ccccc1)NC(=O)[C@@H](NC(=O)CNC(=O)[C@H](CCC(N)=O)NC(=O)C(C)(C)NC(=O)[C@@H](N)Cc1c[nH]cn1)[C@@H](C)O)[C@@H](C)O)C(C)C)C(=O)N[C@@H](CC(N)=O)C(=O)N[C@@H](CCCCNC(=O)CC[C@H](NC(=O)CC[C@H](NC(=O)COCCOCCNC(=O)COCCOCCNC(=O)CC[C@H](NC(=O)CCCCCCCCCCCCCCCCC(=O)O)C(=O)O)C(=O)O)C(=O)O)C(N)=O
In the case of B1, the “EC50 GLP-1R, CRE luciferase reporter gene assay in BHK cells” value (“EC50 GLP-1R” below) in the experiment with human GLP-1 receptor [1] was determined as 0.0147 nM. In the experiment with human glucagon receptor [2], the “EC50 GlucR, CRE luciferase reporter gene assay in BHK cells” value (“EC50 GlucR” for short) came out at 0.104 nM. Also, the IC50 in the experiment with human GLP-1 receptor [3] was determined as 0.5 nM; with human glucagon receptor [4], 7 nM.

B2: N^ε29-[(4S)-4-carboxy-4-[[(4S)-4-carboxy-4-[[2-[2-[2-[[2-[2-[2-[[(4S)-4-carboxy-4-(17-carboxyheptadecanoylamino)butanoyl]amino]ethoxy]ethoxy]acetyl]amino]ethoxy … (peptide)
peptide: H[Aib]QGTFTSDLSKYLDKRAAREFVAWLLNT-NH2
modifications: not fully specified
As for B2, the “EC50 GLP-1R” value with human GLP-1 receptor [1] is 0.0023 nM. Further, the “EC50 GlucR” value with human glucagon receptor [2] was determined as 0.22 nM. In addition, the results for the IC50 with human GLP-1 receptor [3] and in the experiment with human glucagon receptor [4] were 0.1 nM and 11 nM, respectively.

B3: N^ε29-[(4S)-4-carboxy-4-[[(4S)-4-carboxy-4-[[2-[2-[2-[[(4S)-4-carboxy-4-(17-carboxyheptadecanoylamino)butanoyl]amino]ethoxy]ethoxy]acetyl]amino]butanoyl]amino]b … (peptide)
peptide: H[Aib]QGTFTSDLSKYLDARRAREFVQWLLNK([γGlu-γGlu-AEEA-γGlu-C18 diacid])-NH2
modifications: N-terminus assumed
SMILES: CC(C)C[C@H](NC(=O)[C@H](Cc1ccc(O)cc1)NC(=O)[C@H](CCCCN)NC(=O)[C@H](CO)NC(=O)[C@H](CC(C)C)NC(=O)[C@H](CC(=O)O)NC(=O)[C@H](CO)NC(=O)[C@@H](NC(=O)[C@H](Cc1ccccc1)NC(=O)[C@@H](NC(=O)CNC(=O)[C@H](CCC(N)=O)NC(=O)C(C)(C)NC(=O)[C@@H](N)Cc1c[nH]cn1)[C@@H](C)O)[C@@H](C)O)C(=O)N[C@@H](CC(=O)O)C(=O)N[C@@H](C)C(=O)N[C@@H](CCCNC(=N)N)C(=O)N[C@@H](CCCNC(=N)N)C(=O)N[C@@H](C)C(=O)N[C@@H](CCCNC(=N)N)C(=O)N[C@@H](CCC(=O)O)C(=O)N[C@@H](Cc1ccccc1)C(=O)N[C@H](C(=O)N[C@@H](CCC(N)=O)C(=O)N[C@@H](Cc1c[nH]c2ccccc12)C(=O)N[C@@H](CC(C)C)C(=O)N[C@@H](CC(C)C)C(=O)N[C@@H](CC(N)=O)C(=O)N[C@@H](CCCCNC(=O)CC[C@H](NC(=O)CC[C@H](NC(=O)COCCOCCNC(=O)CC[C@H](NC(=O)CCCCCCCCCCCCCCCCC(=O)O)C(=O)O)C(=O)O)C(=O)O)C(N)=O)C(C)C
As for B3, the “EC50 GLP-1R” value with human GLP-1 receptor [1] came to 0.004 nM. Moreover, the “EC50 GlucR” value with human glucagon receptor [2] was determined as 0.012 nM. Besides, the IC50 with human GLP-1 receptor [3] stood at 0.3 nM; with human glucagon receptor [4], 5.6 nM.

B4: N^ε29-[(4S)-4-carboxy-4-[[(4S)-4-carboxy-4-[[2-[2-[2-[[2-[2-[2-[[(4S)-4-carboxy-4-(17-carboxyheptadecanoylamino)butanoyl]amino]ethoxy]ethoxy]acetyl]amino]ethoxy … (peptide)
peptide: H[Aib]QGTFTSDLSKYLESKRAREFVQWLLKT-NH2
modifications: not fully specified
With B4, in the experiment with human GLP-1 receptor [1], the “EC50 GLP-1R” value was found to be 0.0118 nM. Further, in the experiment with human glucagon receptor [2], the “EC50 GlucR” value was 0.0871 nM. Besides, the IC50 in the experiment with human GLP-1 receptor [3] was determined as 0.2 nM; with human glucagon receptor [4] it was 7.1 nM.

B5: N^ε29-[(4S)-4-carboxy-4-[[(4S)-4-carboxy-4-[[2-[2-[2-[[(4S)-4-carboxy-4-(17-carboxyheptadecanoylamino)butanoyl]amino]ethoxy]ethoxy]acetyl]amino]butanoyl]amino]b … (peptide)
peptide: H[Aib]QGTFTSDLSKYLDLRRAREFVQWLLNK([γGlu-γGlu-AEEA-γGlu-C18 diacid])-NH2
modifications: N-terminus assumed
SMILES: CC(C)C[C@H](NC(=O)[C@H](CC(C)C)NC(=O)[C@H](Cc1c[nH]c2ccccc12)NC(=O)[C@H](CCC(N)=O)NC(=O)[C@@H](NC(=O)[C@H](Cc1ccccc1)NC(=O)[C@H](CCC(=O)O)NC(=O)[C@H](CCCNC(=N)N)NC(=O)[C@H](C)NC(=O)[C@H](CCCNC(=N)N)NC(=O)[C@H](CCCNC(=N)N)NC(=O)[C@H](CC(C)C)NC(=O)[C@H](CC(=O)O)NC(=O)[C@H](CC(C)C)NC(=O)[C@H](Cc1ccc(O)cc1)NC(=O)[C@H](CCCCN)NC(=O)[C@H](CO)NC(=O)[C@H](CC(C)C)NC(=O)[C@H](CC(=O)O)NC(=O)[C@H](CO)NC(=O)[C@@H](NC(=O)[C@H](Cc1ccccc1)NC(=O)[C@@H](NC(=O)CNC(=O)[C@H](CCC(N)=O)NC(=O)C(C)(C)NC(=O)[C@@H](N)Cc1c[nH]cn1)[C@@H](C)O)[C@@H](C)O)C(C)C)C(=O)N[C@@H](CC(N)=O)C(=O)N[C@@H](CCCCNC(=O)CC[C@H](NC(=O)CC[C@H](NC(=O)COCCOCCNC(=O)CC[C@H](NC(=O)CCCCCCCCCCCCCCCCC(=O)O)C(=O)O)C(=O)O)C(=O)O)C(N)=O
On to B5, for which, in the experiment with human GLP-1 receptor [1], the “EC50 GLP-1R” value came out at 0.013 nM. The “EC50 GlucR” value in the experiment with human glucagon receptor [2] turned out to be 0.024 nM. In addition, the values for the IC50 with human GLP-1 receptor [3] and in the experiment with human glucagon receptor [4] were 1.2 nM and 29.4 nM, respectively.

B6: N^ε29-[(4S)-4-carboxy-4-[[(4S)-4-carboxy-4-[[2-[2-[2-[[(4S)-4-carboxy-4-(17-carboxyheptadecanoylamino)butanoyl]amino]ethoxy]ethoxy]acetyl]amino]butanoyl]amino]b … (peptide)
peptide: H[Aib]QGTFTSDLSKYLESRRAREFVQWLLNK([γGlu-γGlu-AEEA-γGlu-C18 diacid])-NH2
modifications: N-terminus assumed
SMILES: CC(C)C[C@H](NC(=O)[C@H](CC(C)C)NC(=O)[C@H](Cc1c[nH]c2ccccc12)NC(=O)[C@H](CCC(N)=O)NC(=O)[C@@H](NC(=O)[C@H](Cc1ccccc1)NC(=O)[C@H](CCC(=O)O)NC(=O)[C@H](CCCNC(=N)N)NC(=O)[C@H](C)NC(=O)[C@H](CCCNC(=N)N)NC(=O)[C@H](CCCNC(=N)N)NC(=O)[C@H](CO)NC(=O)[C@H](CCC(=O)O)NC(=O)[C@H](CC(C)C)NC(=O)[C@H](Cc1ccc(O)cc1)NC(=O)[C@H](CCCCN)NC(=O)[C@H](CO)NC(=O)[C@H](CC(C)C)NC(=O)[C@H](CC(=O)O)NC(=O)[C@H](CO)NC(=O)[C@@H](NC(=O)[C@H](Cc1ccccc1)NC(=O)[C@@H](NC(=O)CNC(=O)[C@H](CCC(N)=O)NC(=O)C(C)(C)NC(=O)[C@@H](N)Cc1c[nH]cn1)[C@@H](C)O)[C@@H](C)O)C(C)C)C(=O)N[C@@H](CC(N)=O)C(=O)N[C@@H](CCCCNC(=O)CC[C@H](NC(=O)CC[C@H](NC(=O)COCCOCCNC(=O)CC[C@H](NC(=O)CCCCCCCCCCCCCCCCC(=O)O)C(=O)O)C(=O)O)C(=O)O)C(N)=O
Regarding B6, the “EC50 GLP-1R” value in the experiment with human GLP-1 receptor [1] amounted to 0.004 nM. For the same molecule, the “EC50 GlucR” value in the experiment with human glucagon receptor [2] is 0.136 nM. The IC50 with human GLP-1 receptor [3] came out at 0.4 nM; with human glucagon receptor [4] it was 37.7 nM.

B7: N^ε16-[(4S)-4-carboxy-4-[[(4S)-4-carboxy-4-[[2-[2-[2-[[(4S)-4-carboxy-4-[[(4S)-4-carboxy-4-(17-carboxyheptadecanoylamino)butanoyl]amino]butanoyl]amino]ethoxy]et … (peptide)
peptide: H[Aib]QGTFTSDLSKYLDK([γGlu-γGlu-AEEA-γGlu-γGlu-C18 diacid])RRAQEFVQWLVKG-NH2
modifications: N-terminus assumed
SMILES: CC(C)C[C@H](NC(=O)[C@H](Cc1ccc(O)cc1)NC(=O)[C@H](CCCCN)NC(=O)[C@H](CO)NC(=O)[C@H](CC(C)C)NC(=O)[C@H](CC(=O)O)NC(=O)[C@H](CO)NC(=O)[C@@H](NC(=O)[C@H](Cc1ccccc1)NC(=O)[C@@H](NC(=O)CNC(=O)[C@H](CCC(N)=O)NC(=O)C(C)(C)NC(=O)[C@@H](N)Cc1c[nH]cn1)[C@@H](C)O)[C@@H](C)O)C(=O)N[C@@H](CC(=O)O)C(=O)N[C@@H](CCCCNC(=O)CC[C@H](NC(=O)CC[C@H](NC(=O)COCCOCCNC(=O)CC[C@H](NC(=O)CC[C@H](NC(=O)CCCCCCCCCCCCCCCCC(=O)O)C(=O)O)C(=O)O)C(=O)O)C(=O)O)C(=O)N[C@@H](CCCNC(=N)N)C(=O)N[C@@H](CCCNC(=N)N)C(=O)N[C@@H](C)C(=O)N[C@@H](CCC(N)=O)C(=O)N[C@@H](CCC(=O)O)C(=O)N[C@@H](Cc1ccccc1)C(=O)N[C@H](C(=O)N[C@@H](CCC(N)=O)C(=O)N[C@@H](Cc1c[nH]c2ccccc12)C(=O)N[C@@H](CC(C)C)C(=O)N[C@H](C(=O)N[C@@H](CCCCN)C(=O)NCC(N)=O)C(C)C)C(C)C
Regarding B7, the “EC50 GLP-1R” value with human GLP-1 receptor [1] is 0.0295 nM. Also, the “EC50 GlucR” value with human glucagon receptor [2] came out at 1.33 nM. Also, the IC50 in the experiment with human GLP-1 receptor [3] worked out at 1.6 nM; with human glucagon receptor [4], 148 nM.
